In patent publication US7476386B1 (priority 1997, dated 2009):
Ends that are not written are not given here. * marks the point of attachment. Palmitoyl = CCCCCCCCCCCCCCCC(=O)*

Key:
Assay type in all cases: physicochemical
[1] = Sterilizing filtration (0.22 μm) of lipopeptide mixtures; conditions: for yield (%): batch CK9, 20 mg/ml in 80% acetic acid, filtered 0.22 μm, range reflects precision of determination
Procedure: The solutions obtained were subjected to ultrasonic action to encourage the dispersion of the aggregates, mixed to give a final volume of 5.5 ml, and the mixture was again subjected to ultrasonic action, then diluted with 9.5 ml of water to obtain a final concentration of about 8% in acetic acid (AcOH), compatible with a good quality freeze-drying. This solution, after a final period in the ultrasonic bath, was filtered over Millipore Millex GV SLGV 0130S filters (0.22 μm).
An ultrasonic step was used at each stage to ensure effective dispersion of the aggregates.
The solutions were mixed, then filtered over Millex GV SLGV 0130S filters (0.22 μm). […] The receiver vessels and the filter were then rinsed with water, in sufficient quantity to give a final acetic acid concentration of 8% (final volume 15 ml as before), so as to ensure the quality of the freeze-drying step.
The procedure used was the same as for the previous batch, apart from the quantities. The solution of the peptide (20 mg/ml in 80% acetic acid) was filtered in 4 portions, changing the filter before its saturation, using identical membranes (Durapore STERIVEX GV 0.22 μm sterile units (Millipore)), then made up with the water used for rinsing the filters and for dilution. The final volume was 1516 ml (including 154 ml of acetic acid: 10% in final solution). The portion volume was 1.3 ml per dose. The apportioned doses were freeze-dried, and analysed using a validated HPLC determination method.
This set of peptides was synthesized as described in the previous examples.
This set of peptides was synthesized as described in example 1. The mixture of solutions was performed on a sample of 5 mg of each peptide previously dissolved at a concentration of 20 mg/ml in 80% acetic acid then mixed in the following order: 1: LSA3 NRI; 2: LSA3 NRII; 3: LSA3 CT1; 4 LSA3 RE.

[2] = Test of uniformity of concentration on batch CK9; conditions: batch CK9, 15 random samples, each injected three times
Procedure: According to the Pharmacopoeia, powders for parenteral use are subjected to a requirement of uniformity of concentration. The test must be performed on 10 random samples, which are analysed individually for the active ingredient using an appropriate analytical method. The preparation satisfies the test if the concentration of each sample is between 85 and 115% of the average concentration.
The test was performed on 15 random samples, taken up in solution and diluted in 80% acetic acid according to a standardized operational procedure, so as always to inject an identical proportion of about 15 μg, defined during preparation of the calibration curve. Each sample was injected three times, the concentration of each active ingredient corresponding to the average of the three values obtained.

[3] = Solubility of the lipopeptides in pure water
[4] = batch CK2, simple mixture diluted to about 8% acetic acid, 0.22 μm filter
[5] = batch CK3, each lipopeptide in 80% acetic acid, mixed then filtered 0.22 μm

| Substance | Filtration yield (%) after mixing [1, 4] | Filtration yield (%) after mixing [1, 5] | yield (%) [1] | Observed deviation [2] | appearance of the solution in pure water [3] |
| --- | --- | --- | --- | --- | --- |
| VGFPVTPQVPLRPMTYKAAVDLSHFLKEKGGLK(Pam)-NH2 [NEF 66] | 95% | quantitative | 89.14-94.6% | 4.23% |  |
| EWRFDSRLAFHHVARELHPEYFKNK(Pam)-NH2 (EWRFDSRLAFHHVARELHPEYFKNK(Palmitoyl)-NH2; N-terminus assumed; SMILES CCCCCCCCCCCCCCCC(=O)NCCCC[C@H](NC(=O)[C@H](CC(N)=O)NC(=O)[C@H](CCCCN)NC(=O)[C@H](Cc1ccccc1)NC(=O)[C@H](Cc1ccc(O)cc1)NC(=O)[C@H](CCC(=O)O)NC(=O)[C@@H]1CCCN1C(=O)[C@H](Cc1c[nH]cn1)NC(=O)[C@H](CC(C)C)NC(=O)[C@H](CCC(=O)O)NC(=O)[C@H](CCCNC(=N)N)NC(=O)[C@H](C)NC(=O)[C@@H](NC(=O)[C@H](Cc1c[nH]cn1)NC(=O)[C@H](Cc1c[nH]cn1)NC(=O)[C@H](Cc1ccccc1)NC(=O)[C@H](C)NC(=O)[C@H](CC(C)C)NC(=O)[C@H](CCCNC(=N)N)NC(=O)[C@H](CO)NC(=O)[C@H](CC(=O)O)NC(=O)[C@H](Cc1ccccc1)NC(=O)[C@H](CCCNC(=N)N)NC(=O)[C@H](Cc1c[nH]c2ccccc12)NC(=O)[C@@H](N)CCC(=O)O)C(C)C)C(N)=O) [NEF 182] | 92% | quantitative | 96.23-102.05% | 5.84% |  |
| TRPNNNTRKSIHIGPGRAFYATGEIIGDIRQAHK(Palmitoyl)-NH2 [ENV] | 95% | quantitative | 104.71-110.89% | 14.95% |  |
| TQGYFPDWQNYTPGPGVRYPLTFGWCYKLVPK(Pam)-NH2 (TQGYFPDWQNYTPGPGVRYPLTFGWCYKLVPK(Palmitoyl)-NH2; N-terminus assumed; SMILES CCCCCCCCCCCCCCCC(=O)NCCCC[C@H](NC(=O)[C@@H]1CCCN1C(=O)[C@@H](NC(=O)[C@H](CC(C)C)NC(=O)[C@H](CCCCN)NC(=O)[C@H](Cc1ccc(O)cc1)NC(=O)[C@H](CS)NC(=O)[C@H](Cc1c[nH]c2ccccc12)NC(=O)CNC(=O)[C@H](Cc1ccccc1)NC(=O)[C@@H](NC(=O)[C@H](CC(C)C)NC(=O)[C@@H]1CCCN1C(=O)[C@H](Cc1ccc(O)cc1)NC(=O)[C@H](CCCNC(=N)N)NC(=O)[C@@H](NC(=O)CNC(=O)[C@@H]1CCCN1C(=O)CNC(=O)[C@@H]1CCCN1C(=O)[C@@H](NC(=O)[C@H](Cc1ccc(O)cc1)NC(=O)[C@H](CC(N)=O)NC(=O)[C@H](CCC(N)=O)NC(=O)[C@H](Cc1c[nH]c2ccccc12)NC(=O)[C@H](CC(=O)O)NC(=O)[C@@H]1CCCN1C(=O)[C@H](Cc1ccccc1)NC(=O)[C@H](Cc1ccc(O)cc1)NC(=O)CNC(=O)[C@H](CCC(N)=O)NC(=O)[C@@H](N)[C@@H](C)O)[C@@H](C)O)C(C)C)[C@@H](C)O)C(C)C)C(N)=O) [NEF 117] | 81% | quantitative | 109.08-116.72% | 4.67% | slightly opalescent solution |
